Test [1] addresses recombinant interleukin-15Rα-sushi-Fc fusion protein (human).
The target in test [2] is commercial whole IL-15Rα fusion protein (rIL-15Rα-Fc) (UniProt Q13261).
Test [3] has as its target recombinant interleukin-15Rα-sushi-Fc fusion protein (human). Briefly: not stated; affinity shown in Figure S3A,B; method not told in the main text.
Test [4] has as its target commercial whole IL-15Rα fusion protein (rIL-15Rα-Fc) (UniProt Q13261). The description is as above.
Test [5] addresses recombinant interleukin-15Rα-sushi-Fc fusion protein (human). Briefly: pull-down; rILR-Fc/PhA NPs incubated with rIL-15 at 37 °C for 30 min in PBS; nanoparticles adsorbed on a Protein A agarose column; free rIL-15 quantified by sandwich ELISA.
The target is the same in test [6]. This is another data set of the same source.

commercial whole IL-15Rα fusion protein (rIL-15Rα-Fc), sequence (Q13261 31-205): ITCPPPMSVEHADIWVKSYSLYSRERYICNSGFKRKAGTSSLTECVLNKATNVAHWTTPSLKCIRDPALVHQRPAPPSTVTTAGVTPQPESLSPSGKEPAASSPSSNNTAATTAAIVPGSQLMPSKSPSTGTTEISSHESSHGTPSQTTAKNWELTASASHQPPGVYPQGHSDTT
recombinant wild-type IL-15, sequence (P40933 49-162): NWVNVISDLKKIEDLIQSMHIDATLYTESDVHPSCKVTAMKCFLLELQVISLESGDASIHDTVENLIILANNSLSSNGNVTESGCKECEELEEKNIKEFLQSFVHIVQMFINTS

As to “recombinant wild-type IL-15 (from UniProt P40933 49-162) (ligand)”, the EC50 of M-07e cell proliferation, rIL-15-wt pre-associated with rILR-Fc (rIL-15-wt alone: 3.26 nM) in test [1] amounted to 1.62 nM. Besides, the EC50 of M-07e cell proliferation, rIL-15-wt pre-associated with rIL-15Rα-Fc (rIL-15-wt alone: 3.26 nM) in test [2] was 1.65 nM.
For “recombinant IL-15 (N72D-mutated human IL-15) (ligand)”, the affinity in test [3] worked out at 0.24 nM. The affinity in test [4] turned out to be 0.115 nM. In addition, in test [5], the encapsulation efficiency (percent of rIL-15 held by the rILR-Fc/PhA/rIL-15 NPs) was determined as 99.5% and the molar ratio of rIL-15 to rILR-Fc in the nanoparticles was determined as 0.81. Besides, the serum elimination half-life (t1/2) of rIL-15 in mice after i.v. injection of rILR-Fc/PhA/rIL-15 NPs (free rIL-15: 20.24 min) in test [6] came to 39.4 min.
